Molecular target: the molecule itself
Assay: SEC; Superdex-200, L1 eluted from the glutathione column after thrombin cleavage; step: L1 chains to pentamer

B1: full-length HPV16 L1 (natural protein)
chain: MSLWLPSEATVYLPPVPVSKVVSTDEYVARTNIYYHAGTSRLLAVGHPYFPIKKPNNNKILVPKVSGLQYRVFRIHLPDPNKFGFPDTSFYNPDTQRLVWACVGVEVGRGQPLGVGISGHPLLNKLDDTENASAYAANAGVDNRECISMDYKQTQLCLIGCKPPIGEHWGKGSPCTNVAVNPGDCPPLELINTVIQDGDMVDTGFGAMDFTTLQANKSEVPLDICTSICKYPDYIKMVSEPYGDSLFFYLRREQMFVRHLFNRAGAVGENVPDDLYIKGSGSTANLASSNYFPTPSGSMVTSDAQIFNKPYWLQRAQGHNNGICWGNQLFVTVVDTTRSTNMSLCAAISTSETTYKNTNFKEYLRHGEEYDLQFIFQLCKITLTADVMTYIHSMNSTILEDWNFGLQPPPGGTLEDTYRFVTSQAIACQKHTPPAPKEDPLKKYTFWEVNLKEKFSADLDQFPLGRKFLLQAGLKAKPKFTLGKRKATPTTSSTSTTAKRKKRKL
notes: major capsid protein L1 of human papillomavirus type 16, full-length clone in pGEX-2T; Purified as pentamers; forms T = 7 particles in assembly buffer; also called wild-type L1; major capsid L1 protein; source: E. coli, expressed as GST-L1 fusion from pGEX-2T, glutathione column, cleaved with thrombin, Superdex-200; not shown: GST, N-terminal, cleaved
stoichiometry N: 5

From publication PMC1781933, “Structure-based engineering of papillomavirus major capsid L1: controlling particle assembly” (Virology Journal, 2007)
